Results: US20210139610A1, “COMPOSITIONS AND METHODS FOR MEDIATING EPS” (priority 2018, published 2021)
Entries after “also recorded” stand apart in the source; their conditions may differ.

What was measured:
[1] = system: preformed NTHI biofilms; test: Disruption of pre-formed NTHI biofilms (treatment after initial growth; LIVE/DEAD, CLSM, COMSTAT); assay type: cell-based, Non-typeable Haemophilus influenzae; settings: DNase (Pulmozyme) added at 24 h
Method: (FIG. 18A) Biofilm growth was initiated then maintained for 24 hrs then treated for 16 hrs with 0 (SBHI Control), 0.1%, 1%, and 5% (w/v) of Phoshocellulose (P11). (FIG. 18B) Biofilm growth was initiated then maintained for 40 hrs in the presence of 0 (sBHI Control), 0.1%, 1%, and 5% (w/v) of (P11). Biofilms were washed with saline and stained with LIVE/DEAD® stain. Images were analyzed by COMSTAT to calculate average thickness and biomass. All images were captured with a 63× objective.
21:65-7. Pulmozyme® was added either at seeding (biofilm prevention) or to pre-formed biofilms (biofilm disruption) (FIG. 6). The resultant biofilms were stained with LIVE/DEAD® and evaluated using CLSM and COMSTAT analysis.
To determine anti-biofilm activity of cation exchange resins on preformed biofilms (i.e. ability to disrupt an extant biofilm), NTHI growth was initiated and maintained for 24 hrs, then treated for 16 hrs with 0 (sBHI Control), 0.1, 1, or 5% (w/v) of P11 phosphocellulose (FIG. 18A). To determine the anti-biofilm activity of cation exchange resins to prevent biofilm formation, NTHI growth was initiated and maintained in the presence of 0 (sBHI Control), 0.1, 1, and 5% w/v of P11 phosphocellulose (FIG. 18B) or 5% (w/v) heparin sepharose (FIG. 19). Biofilms were washed with saline and stained with LIVE/DEAD®, visualized with confocal scanning microscopy (CSLM) and analyzed by COMSTAT to determine average thickness and biomass.

[2] = system: UPEC biofilms; test: UPEC in vitro biofilm prevention (at seeding) / disruption (at 24 h); assay type: cell-based, uropathogenic Escherichia coli (UPEC)
Method: FIG. 6: Mature biofilms are resistant to disruption by DNase. DNase (Pulmozyme; 5 units) was added at seeding (prevention) or at 24 h (disruption) to the respective in vitro preformed NTHI and UPEC biofilms. After a total of 40 h, biofilms were stained with LIVE/DEAD®, visualized via CLSM and analyzed by COMSTAT. Bars represent the SEM. Statistical significance compared to control was assessed by unpaired t-tests, *P<0.05; **P<0.01.
FIGS. 35A-35D: DNABII proteins and polyamines (PAs) interact synergistically to induce DNase resistance. […] Biofilms were stained, fixed, visualized via CLSM, and analyzed by COMSTAT. […] Statistical significance compared to Control (No DNase) was assessed by unpaired t-tests, **P<0.01.
FIG. 49: Z-DNA stabilization stimulates biofilm formation. […] Biofilms were stained, fixed, visualized via CLSM, and analyzed by COMSTAT. […] Statistical significance compared to Control (no antibodies) was assessed by paired t-tests, *P<0.05, **P<0.01.
Applicants evaluated the antibiofilm effect of Pulmozyme®, a recombinant human DNase that is used in conjunction with standard therapies for the management of cystic fibrosis (CF) patients to improve pulmonary function. […] The resultant biofilms were stained with LIVE/DEAD® and evaluated using CLSM and COMSTAT analysis.

[3] = system: genomic DNA; test: Spermidine sensitivity of nucleases on genomic DNA; assay type: biochemical; settings: Spermidine titrated from 10 μM-10 mM
[4] = system: Biofilms formed for 24 h by the indicated bacteria (Kp=K. pneumoniae); test: B-DNA / Z-DNA abundance after DNase in 24 h biofilms of the indicated bacteria (ImageJ fluorescence ratio); assay type: cell-based; settings: Pulmozyme 40 U/ml for 16 h
Method: FIGS. 48A-48B: Z-DNA in biofilms forms a nuclease-resistant scaffold. (FIG. 48A) Biofilms formed for 24 h by the indicated bacteria (Kp=K. pneumoniae) were incubated with DNase (Pulmozyme®; 40 U/ml) for an additional 16 h. Biofilms were then probed with anti-B-DNA (dark gray) and anti-Z-DNA (white) antibodies and counterstained with the bacterial cell membrane stain FM4-64™ (not shown). (FIG. 48B) Changes in abundance of B-DNA or Z-DNA were quantified using ImageJ by calculation of the ratio of fluorescence intensity of B-DNA or Z-DNA after DNase addition divided by the fluorescence intensity in the absence of DNase (Control). Fluorescence intensity was normalized to the fluorescence signal of FM4-64™-stained cells. Bars represent the SEM. Statistical significance compared to Control (no DNase, dotted line) was assessed by paired t-tests, *P<0.05; ****P<0.0001.

B1: DNase: Pulmozyme, a recombinant human DNase used for management of cystic fibrosis patients (protein, UniProt P24855 23-282, looked up)
Deoxyribonuclease-1: LKIAAFNIQTFGETKMSNATLVSYIVQILSRYDIALVQEVRDSHLTAVGKLLDNLNQDAPDTYHYVVSEPLGRNSYKERYLFVYRPDQVSAVDSYYYDDGCEPCGNDTFNREPAIVRFFSRFTEVREFAIVPLHAAPGDAVAEIDALYDVYLDVQEKWGLEDVMLMGDFNAGCSYVRPSQWSSIRLWTSPTFQWLIPDSADTTATPTHCAYDRIVVAGMLLRGAVVPDSALPFNFQAAYGLSDQLAQAISDHYPVEVMLK
NTHI mature biofilm disruption [1]: unable to disrupt mature biofilms; also recorded: not disrupt extant biofilms | UPEC mature biofilm disruption ([2]; DNase (Pulmozyme) added at 24 h): unable to disrupt mature biofilms; also recorded: not disrupt extant biofilms | UPEC biofilm prevention (average thickness, biomass) ([2]; DNase (Pulmozyme) added at seeding): significant reduction in average thickness and biomass of NTHI and UPEC biofilms; also recorded: can prevent | Spd inhibition: spermidine concentration where nuclease was reduced to <10% activity on genomic DNA [3]: 300 µM | B-DNA abundance after DNase [4]: B-DNA is degraded | Z-DNA abundance after DNase [4]: Z-DNA is resistant
